Data reported in US8470576B2, “Group of novel enantioselective microbial nitrile hydratases with broad substrate specificity” (B.R.A.I.N. AG, priority 2006, dated 2013).

B1: NHase Seq ID No. 2 and 4: nitrile hydratase of Raoultella terrigena strain 77.1, α-subunit SEQ ID NO 2, β-subunit SEQ ID NO 4 (protein)
alpha: MSHKHDHDHTEPPVDIELRVRALESLLQEKGLIDPAALDELIDTYEHKVGPRNGAQVVARAWSDPEYKRRLMENATAAISELGFSGIQGEDMLVVENTPDVHNVTVCTLCSCYPWPVLGLPPVWYKSAPYRSRIVIDPRGVLAEFGLHIPESKEIRVWDSSAELRYLVLPERPAGTDGWSEAQLSELISRDSMIGTGVVTAP
beta: MNGIHDLGGMHGFGPIPTEENEPYFHHEWERRVFPMFASLFVGVHFNVDEFRHSIECMPPADYLQSSYYEHWLHAFETLLLAKGVITVDELWGGAKPTLCKPGTPVLTQDMVSMVVSTGGSARVSHDVAPRFRVGDRVRTKNFNPTTHTRLPRYARDKVGRIEIAHGVFITPDTAAHGLGEHPQHVYSVSFTAQELWGEPRPDNVFIDLWDDYLEEA
modifications: Raoultella terrigena, strain 77.1
B2: NHase Seq ID No. 18 and 20: nitrile hydratase of Klebsiella oxytoca strain 38.1.2, α-subunit SEQ ID NO 18, β-subunit SEQ ID NO 20 (protein)
alpha: MSHKHDHDHTQPPVDIELRVRALESLLQEKGLIDPAALDELIDTYEHKVGPRNGAQVVARAWSDPEYKRRLMENATAAIAELGFSGIQGEDMLVVENTPDVHNVTVCTLCSCYPWPVLGLPPVWYKSAPYRSRIVIDPRGVLAEFGLHIPENKEIRVWDSSAELRYLVLPERPAGTEGWSEAQLSELITRDSMIGTGVVTAP
beta: MNGIHDLGGMHGLGPIPTEENEPYFHHEWERRVFPLFASLFVGGHFNVDEFRHAIERMAPTEYLQSSYYEHWLHAFETLLLAKGVITVEELWGGAKPAPCKPGTPVLTQEMVSMVVSTGGSARVSHDVAPRFRVGDWVRTKNFNPTTHTRLPRYARDKVGRIEIAHGVFITPDTAAHGLGEHPQHVYSVSFTAQALWGEPRPDKVFIDLWDDYLEEA
modifications: Klebsiella oxytoca, strain 38.1.2

Tests used:
Type in all cases: biochemical
[1] = Enantioselectivity of NHases towards rac-mandelonitrile (washed cells, chiral HPLC); conditions: for enantiopreference: (R/S)-mandelonitrile; for Eapp-value: kinetic resolution of (R/S)-mandelonitrile; for Eapp-value heterologously expressed / Eapp-value homologously expressed: rac-mandelonitrile; for Eapp-value heterologously expressed: heterologously expressed NHase; for Eapp-value homologously expressed: homologously expressed NHase
Method: For the determination of enantioselectivity towards rac-mandelonitrile and 2-phenylpropionitrile 40-50 mg of washed cells were resuspended in 1 ml of 50 mM Tris/HCl pH 7.5. 100 μl of cell suspension were mixed with 800 μl 50 mM Tris/HCl pH 7.5 and incubated at 30° C. in a thermomixer at 1000 rpm. The biotransformation was started by addition of 100 μl of 10 mM rac-mandelonitrile or rac-2-phenylpropionitrile in 50 mM Tris/HCl pH 7.5. The reaction was stopped by addition of 100 μl 1M HCl after 1, 5 or 10 min. Cells were removed by centrifugation and the supernatant analysed by chiral HPLC for the presence of mandeloamide and phenylpropionamide, respectively. rac-Mandeloamide was analysed on a HPLC comprising a Surveyor 4 channel Pump, AutoSampler and UVNIS detector at 210 nm from Thermo Finnigan on a Nucleodex β-OH column (Macherey & Nagel) using 50% methanol/water:water (40:60) as mobile phase at a flow rate of 0.7 ml/min. The apparent enantiomeric ratio (Eapp) of the conversion of mandelonitrile was calculated according to Straathof and Jongejan for […] (see example 9). In case of 2-phenylpropionamide, the samples were lyophilized and resuspended in n-hexane: 2-propanol (80:20). Prior to injection, the samples were additionally dried with sodium sulfate and were centrifugated at 16,000 g for 5 min. The supernatants were analyzed using a Chiracel OD column (Daicel) on a Spectra System (AS3000, P2000, UV2000 at 210 nm) from Thermo Separation Products with n-hexane: 2-propanol (80:20) as mobile phase at a flow rate of 0.5 ml/min. The enantiomeric ratio (E) of the conversion of PPN was calculated according to Chen et al. […]

[2] = Activity of enzyme samples after heterologous expression of NHases in E. coli towards PPN; conditions: 1 mM PPN; stopped after 1 min; host E. coli BL21 (DE3) (a) or E. coli Rosetta (DE3) (b)
Method: The amplified α-subunits were ligated to pET22b whereas the β-subunits were ligated to pET26b by use of the unique NdeI and XhoI restriction enzyme recognition sites. E. coli BL21 (DE3) or E. coli Rosetta (DE3) was cotransformed with the vectors carrying the genes for the corresponding α- and β-subunits of the NHases. Freshly transformed cells were grown over night at 37° C. in 5 ml LB-medium containing 100 μg/ml ampicillin, 25 μg/ml kanamycin and 2% (w/v) glucose. In case of E. coli Rosetta (DE3) 12.5 μg/ml chloramphenicol was additionally used. 1 ml of this culture was used to inoculate 100 ml of LB-medium containing 100 μg/ml ampicillin, 25 μg/ml kanamycin and 1% (w/v) glucose. Cells were incubated at 20° C. or 30° C. on a gyratory shaker at 100 rpm. At an optical density O.D.595=1 cells were induced by addition of 100 μg/ml IPTG. Simultaneously, CoCl2*6H2O was added in a concentration of 250 μM. When the P16K activator protein from the strain Brevibacterium linens was coexpressed with the corresponding NHase E. coli Rosetta (DE3) pET22—32B1α pET26—32B.1β pBBR5—32B_P16K was grown in LB-medium containing 100 μg/ml ampicillin, 25 μg/ml kanamycin, 12.5 μg/ml chloramphenicol and 10 μg/ml gentamycin and 1% (w/v) glucose. Samples were taken 24 h after induction.
(§1) If not otherwise indicated enzyme samples were prepared as follows: the cells from 1 ml of the culture were washed with 50 mM Tris/HCl pH 7.5 and resuspended in 750 μl of the same buffer. This suspension was incubated at 30° C. in a thermomixer at 1000 rpm. The biotransformation was started by addition of the substrate 2-phenylpropionitrile (PPN) in 50 mM Tris/HCl pH 7.5. The concentration of the substrate was 1 mM, if not otherwise stated. The reaction was stopped after 1 min, 5 min or 10 min as indicated by addition of 1 M HCl. Cells were removed by centrifugation and the supernatant analysed by HPLC for the presence of the corresponding amide. The HPLC analysis was carried out on a system comprising a Surveyor 4 channel Pump, AutoSampler and UVNIS detector at 210 nm from Thermo Finnigan on a Grom-Sil 1200DS-3 cp 3 μm (125×4.6 mm) reverse phase column. As mobile phase, acetonitrile and 0.3% H3PO4 were used in a ratio of 50:50 at a flow of 0.7 ml/min, respectively.

[3] = Dependence of NHase activity on the temperature; conditions: for optimal temperature: 1 mM PPN
Method: As enzyme samples cell free crude extracts were used either of the heterologously or homologously produced enzyme. The substrate (1 mM 2-phenylpropionitrile (PPN) in 50 mM Tris/HCl pH 7.5)) was equilibrated at the indicated temperatures before the reaction was started by addition of 50 μl of enzyme sample. The activity was determined as described in example 4.
As enzyme samples lyophilized cells or a cell free crude extract were used. The samples were equilibrated for 5 min at the indicated temperatures before the reaction was started by addition of PPN to a final concentration of 1 mM. The activity was determined as described in example 4.
as §1
The optimal temperatures for the NHases according to Seq ID No. 2 and 4 (Raoultella terrigena, 77.1) and Seq ID. No. 18 and 20 (Klebsiella oxytoca, 38.1.2) were determined to be at 45° C. (FIG. 23 and FIG. 24). At 55° C. a residual activity of about 20% was found for the enzyme according to Seq ID-No. 18 and 20 whereas at 60° C. no activity could be determined.

Molecule | enantiopreference [1] | Eapp-value [1] | Eapp-value heterologously expressed [1] | Eapp-value homologously expressed [1] | vol. activity [2] [μkat/L cultur] | optimal temperature [3] [°C] | residual activity at 60° C. [3] | spec. activity [2] [μkat/g cdw] | residual activity at 55° C. ([3]; 55° C.)
B1 | (S) | 20 | 20 | 19 | 4.9 | 45 | 60-79% | – | –
B2 | (S) | 19 | 19 | 17 | 8.6 | 45 | no activity | 9.6 | about 20%
